This passage reports Kd results from the Immune Epitope Database (IEDB).

The target of one experiment is HLA-A*26:01. Briefly: IEDB peptide-MHC binding, purified MHC/competitive/radioactivity; filed as Kd, often an IC50 or EC50 that approximates it; ≥ and ≤ were set here for values at or beyond the usual limits of such assays.
Experiment [1] deals with HLA-B*15:01. Described as above.
In a further experiment the target is HLA-B*35:01. Described as above.
Another experiment addresses HLA-A*02:01. Described as above.
In experiment [2] the target is HLA-A*01:01. The experiment is described as above.
In a further experiment the target is HLA-A*23:01. Described as above.
Another experiment concerns the target HLA-A*24:02. Described as above.
The next experiment has as its target HLA-A*29:02. The description is as above.
Another experiment addresses HLA-A*30:02. The experiment is described as above.
The target in experiment [3] is HLA-B*15:01. Description: IEDB peptide-MHC binding, purified MHC/competitive/fluorescence; filed as Kd, often an IC50 or EC50 that approximates it; ≥ and ≤ were set here for values at or beyond the usual limits of such assays.
For a further experiment, the target named is HLA-B*07:02. Description: IEDB peptide-MHC binding, purified MHC/competitive/radioactivity; filed as Kd, often an IC50 or EC50 that approximates it; ≥ and ≤ were set here for values at or beyond the usual limits of such assays.
The target in a further experiment is HLA-A*02:02. The description is as above. As to conditions: source organism: SARS coronavirus Tor2.
The next experiment addresses HLA-A*02:03. Described as above. As to conditions: source organism: SARS coronavirus Tor2.
For another experiment, the target named is HLA-A*02:06. The description is as above. As to conditions: source organism: SARS coronavirus Tor2.
Experiment [4] addresses HLA-A*01:01. Description: IEDB peptide-MHC binding, purified MHC/direct/fluorescence; filed as Kd, often an IC50 or EC50 that approximates it; ≥ and ≤ were set here for values at or beyond the usual limits of such assays. As to conditions: source organism: SARS-CoV1.
Another experiment concerns the target HLA-A*11:01. The description is as above. As to conditions: source organism: SARS-CoV1.
Experiment [5] deals with HLA-B*15:01. The description is as above. The note with it: source organism: SARS-CoV1.
The target of a further experiment is HLA-B*58:01. The experiment is described as above. As to conditions: source organism: SARS-CoV1.
Where [6] appears, read: source organism: Dengue virus 1 Brazil/97-11/1997.
Where [7] appears, read: source organism: Vaccinia virus WR.
[8] abbreviates: source organism: Mammarenavirus lassaense.
[9] abbreviates: source organism: Dengue virus 2 Jamaica/1409/1983.
The mark [10] stands for this setting: source organism: SARS coronavirus Tor2.
[11] abbreviates: source organism: Dengue virus 4 Philippines/H241/1956.
Setting [12] is: source organism: Dengue virus 3 Martinique/1243/1999.

In general, Kd refers to the constant that tells how readily two partners part at equilibrium.

In the case of MLVTPSMAM, the values for the Kd in the experiment with HLA-A*26:01 (setting [6]), with HLA-B*15:01 [1] (setting [6]) and with HLA-B*35:01 (setting [6]) were 6420 nM, 3.06 nM and 442 nM, respectively.

For the sequence NQYLLTMFF, the Kd with HLA-B*15:01 [1] (setting [7]) came to 1.21 nM.

In the case of QLQPFLQPQL, the Kd with HLA-A*02:01 (source organism: Triticum aestivum) is no less than 10000 nM.

Take QNHKKSAHF: in the experiment with HLA-B*15:01 [1] (setting [7]), the Kd amounted to 412 nM.

As to QYNLSHSYAV, the Kd was no less than 70400 nM in the experiment with HLA-A*01:01 [2] (setting [8]); 346 nM with HLA-A*23:01 (setting [8]); 1950 nM in the experiment with HLA-A*24:02 (setting [8]); no less than 69700 nM with HLA-A*26:01 (setting [8]); 1300 nM with HLA-A*29:02 (setting [8]); 3330 nM in the experiment with HLA-A*30:02 (setting [8]).

RLNALGKSEF: in the experiment with HLA-B*15:01 [1] (setting [9]), the Kd came to 17.2 nM.

In the case of RMFHFFEHE, in the experiment with HLA-B*15:01 [1] (setting [7]), the Kd was 66.9 nM.

RTKAIGLNF had a Kd in the experiment with HLA-B*15:01 [3] (source organism: Bacillus cereus G9241) of 84.7 nM.

For the sequence RVIDPRRCM, the Kd with HLA-B*07:02 (setting [9]) came to 1150 nM.

Consider SEIKRGLFF, for which the Kd with HLA-B*15:01 [1] (setting [7]) was 323 nM.

Turning to SMPDFDLHL, the Kd with HLA-A*02:01 (source organism: Homo sapiens) stood at 5.2 nM.

SNAAIGAVF: the dissociation constant Kd with HLA-B*15:01 [1] (setting [6]) is 77.8 nM.

Regarding SYEHQTPFEI, the Kd came to 3680 nM with HLA-A*01:01 [2] (setting [10]); 945 nM with HLA-A*23:01 (setting [10]); 1240 nM with HLA-A*24:02 (setting [10]); 10400 nM with HLA-A*26:01 (setting [10]); 7160 nM in the experiment with HLA-A*29:02 (setting [10]); 7060 nM with HLA-A*30:02 (setting [10]).

As to TCDWTNAGDY, the equilibrium dissociation constant (Kd) is 133 nM with HLA-A*01:01 [2] (setting [10]); no less than 70000 nM with HLA-A*23:01 (setting [10]); no less than 70300 nM with HLA-A*24:02 (setting [10]); no less than 25000 nM with HLA-A*26:01 (setting [10]); 2020 nM in the experiment with HLA-A*29:02 (setting [10]); 672 nM with HLA-A*30:02 (setting [10]).

For TMADLVYAL, the Kd with HLA-A*01:01 [2] (setting [10]) was no less than 62500 nM; with HLA-A*02:02, 0.183 nM; with HLA-A*02:03, 16.2 nM; with HLA-A*02:06, 46.5 nM; in the experiment with HLA-A*23:01 (setting [10]), 6580 nM; in the experiment with HLA-A*24:02 (setting [10]), 10100 nM. The Kd in the experiment with HLA-A*26:01 (setting [10]) was no less than 77900 nM; with HLA-A*29:02 (setting [10]), no less than 23000 nM; with HLA-A*30:02 (setting [10]) it was no less than 93800 nM.

As to TPQPKPGTRM, the figures for the Kd in the experiment with HLA-B*07:02 (setting [11]) and with HLA-B*35:01 (setting [11]) were 39.9 nM and 177 nM, respectively.

Take TQDLFLPFY: the Kd with HLA-A*01:01 [4] is 1810 nM; with HLA-A*11:01, 424 nM; with HLA-B*15:01 [5], 1710 nM; in the experiment with HLA-B*58:01 it was no less than 31500 nM; with HLA-A*23:01 (setting [10]), no less than 67400 nM; with HLA-A*24:02 (setting [10]), no less than 77600 nM. Also, the Kd with HLA-A*26:01 (setting [10]) was determined as 16800 nM; in the experiment with HLA-A*29:02 (setting [10]) it was 426 nM; in the experiment with HLA-A*30:02 (setting [10]), 5.13 nM.

In the experiment with HLA-B*15:01 [3] (source organism: Escherichia coli 101-1), TQWCSRSVY gave a Kd of 84.3 nM.

For the sequence TTAEEAAGI, the Kd in the experiment with HLA-A*02:01 (source organism: Homo sapiens) was 4170 nM.

Regarding TVIDLEPISY, the Kd in the experiment with HLA-A*01:01 [2] (setting [11]) is 8390 nM; with HLA-B*15:01 [1] (setting [11]), 1.36 nM.

Regarding VIEEVMNIV, the Kd in the experiment with HLA-A*02:01 (source organism: Lassa virus GA391) was 6250 nM.

For the sequence YMGEDGCWY, the values for the Kd in the experiment with HLA-A*01:01 [2] (setting [12]), in the experiment with HLA-A*30:02 (setting [12]) and with HLA-B*15:01 [1] (setting [12]) were 177 nM, no less than 36900 nM and 14.8 nM, respectively.

For the sequence YVFFEIIHF, the Kd in the experiment with HLA-B*15:01 [1] (source organism: Vaccinia virus Copenhagen) was found to be 0.692 nM.
